Test results from the Human Domainome abundance scans (Beltran et al. 2025).
± gives the uncertainty stated by the source.

B1: Friend leukemia integration 1 transcription factor, residues 116 to 197; numbered along this chain, Q01543 (parent)
chain: NMTTNERRVIVPADPTLWTQEHVRQWLEWAIKEYSLMEIDTSFFQNMDGKELCKMNKEDFLRATTLYNTEVLLSHLSYLRES
B2: Transcription factor SOX-4, residues 60 to 127; numbered along this chain, Q06945 (parent)
chain: KRPMNAFMVWSQIERRKIMEQSPDMHNAEISKRLGKRWKLLKDSDKIPFIREAERLRLKHMADYPDYK

Variants of: B1
Experiment: abundance fitness (aPCA) (normalised: wild type 0, dead -1); higher = more abundant; growth selection in yeast, the domain comes from the species named
Conditions: Homo sapiens

Abundance fitness, by site and new letter:
L73: M -0.061 ± 0.12 | N -0.631 ± 0.25 | P -0.854 ± 0.2 | R -0.144 ± 0.073 | T -0.044 ± 0.086 | V -0.085 ± 0.074 | W 0.039 ± 0.076 | Y -0.281 ± 0.26
S74: A 0.029 ± 0.1 | C -0.101 ± 0.17 | D 0.014 ± 0.35 | E 0.271 ± 0.16 | F -0.404 ± 0.19 | G 0.026 ± 0.12 | H -0.066 ± 0.18 | K 0.133 ± 0.12 | L -0.28 ± 0.047 | M -0.049 ± 0.11 | P -0.417 ± 0.11 | Q -0.405 ± 0.25 | R 0.042 ± 0.13 | T -0.076 ± 0.12 | V -0.567 ± 0.14 | W -0.561 ± 0.15 | Y 0.134 ± 0.27
H75: Y -0.201 ± 0.33
L76: E -0.794 ± 0.32 | F -0.555 ± 0.29 | G -0.28 ± 0.25 | H -0.841 ± 0.35 | I -0.391 ± 0.34 | M -0.218 ± 0.12 | N -0.799 ± 0.46 | P -0.7 ± 0.27 | Q -0.879 ± 0.23 | R -0.723 ± 0.26 | S -0.553 ± 0.17 | T -0.916 ± 0.33 | V -0.432 ± 0.13
S77: P -0.216 ± 0.23 | T 0.032 ± 0.33
Y78: V 0.124 ± 0.22
L79: F -0.657 ± 0.47
R80: S 0.103 ± 0.37
E81: D -0.092 ± 0.23
S82: F -0.112 ± 0.27 | P -0.125 ± 0.46

Variants of: B2
Experiment: as above
Conditions: Homo sapiens

Abundance fitness of substitutions, site by site:
K1: A -0.193 ± 0.098 | C -0.206 ± 0.095 | D 0.048 ± 0.12 | E -0.317 ± 0.12 | G -0.054 ± 0.068 | L -0.347 ± 0.21 | M -0.214 ± 0.15 | P -0.549 ± 0.3 | Q -0.788 ± 0.33 | S -0.011 ± 0.15 | T -0.379 ± 0.082 | W -0.336 ± 0.13 | Y -0.116 ± 0.13
R2: A -0.08 ± 0.093 | D -0.053 ± 0.13 | E -0.362 ± 0.12 | F -0.113 ± 0.12 | G -0.121 ± 0.086 | H -0.305 ± 0.19 | I -0.012 ± 0.12 | K -0.135 ± 0.12 | L -0.275 ± 0.067 | M -0.088 ± 0.062 | N -0.154 ± 0.16 | P -0.519 ± 0.16 | Q -0.039 ± 0.088 | S 0.003 ± 0.093 | T -0.457 ± 0.2 | V -0.08 ± 0.07 | W -0.164 ± 0.095 | Y -0.374 ± 0.41
P3: A -0.114 ± 0.053 | E 0.072 ± 0.074 | F -0.186 ± 0.056 | G -0.166 ± 0.036 | H -0.055 ± 0.064 | I -0.416 ± 0.079 | K -0.103 ± 0.07 | L -0.216 ± 0.053 | M -0.163 ± 0.063 | N -0.108 ± 0.049 | Q -0.048 ± 0.065 | R -0.149 ± 0.039 | S -0.122 ± 0.041 | V -0.136 ± 0.049 | W -0.561 ± 0.077 | Y -0.182 ± 0.042
M4: A -0.227 ± 0.075 | C -0.709 ± 0.22 | D -0.28 ± 0.071 | E -0.202 ± 0.081 | F -0.033 ± 0.11 | G -0.311 ± 0.063 | H -0.589 ± 0.14 | I 0.047 ± 0.07 | L -0.105 ± 0.053 | N -0.265 ± 0.11 | P 0.002 ± 0.073 | Q -0.412 ± 0.11 | S -0.492 ± 0.085 | T -0.077 ± 0.065 | V -0.068 ± 0.044 | Y -0.236 ± 0.076
N5: A -0.559 ± 0.1 | D -0.032 ± 0.15 | G -0.278 ± 0.081 | H -0.632 ± 0.18 | I -0.665 ± 0.23 | K -0.553 ± 0.11 | L -0.589 ± 0.095 | M -0.842 ± 0.13 | P -0.546 ± 0.11 | Q -0.585 ± 0.12 | R -0.879 ± 0.19 | S 0.016 ± 0.065 | T 0.095 ± 0.047 | V -0.828 ± 0.16 | W -0.439 ± 0.16 | Y -0.472 ± 0.18
A6: C -0.692 ± 0.087 | D -0.607 ± 0.076 | E -0.656 ± 0.074 | F -0.671 ± 0.095 | G -0.079 ± 0.04 | H -1.12 ± 0.36 | I -0.794 ± 0.083 | K -0.791 ± 0.092 | L -0.843 ± 0.078 | M -1.01 ± 0.098 | N -0.943 ± 0.074 | P -0.111 ± 0.092 | Q -0.617 ± 0.094 | R -0.713 ± 0.054 | S -0.495 ± 0.05 | T -0.797 ± 0.091 | V -0.507 ± 0.054 | W -0.896 ± 0.1
M8: A 0.023 ± 0.044 | C -0.278 ± 0.061 | D 0.088 ± 0.049 | E 0.232 ± 0.073 | F -0.133 ± 0.041 | G 0.025 ± 0.041 | H 0.042 ± 0.062 | I -0.181 ± 0.044 | K -0.205 ± 0.054 | L -0.084 ± 0.043 | N -0.242 ± 0.04 | P -1.01 ± 0.29 | Q 0.193 ± 0.059 | R -0.176 ± 0.038 | S -0.072 ± 0.037 | T -0.068 ± 0.058 | V -0.178 ± 0.048 | W -0.204 ± 0.055
V9: A -0.473 ± 0.085 | C -0.258 ± 0.16 | E -0.856 ± 0.19 | F -0.482 ± 0.15 | H -0.733 ± 0.18 | I 0.066 ± 0.057 | K -0.978 ± 0.29 | L 0.037 ± 0.046 | M -0.266 ± 0.13 | N -0.609 ± 0.21 | P -0.617 ± 0.21 | Q -0.76 ± 0.16 | R -1 ± 0.14 | S -0.803 ± 0.15 | T -0.38 ± 0.2 | W -0.694 ± 0.13
W10: A -1.03 ± 0.21 | C -1.03 ± 0.43 | E -0.964 ± 0.28 | F -0.155 ± 0.12 | G -0.954 ± 0.2 | L -0.999 ± 0.12 | M -1.08 ± 0.34 | P -0.751 ± 0.13 | Q -0.921 ± 0.33 | R -0.649 ± 0.093 | S -0.893 ± 0.14 | T -0.958 ± 0.24 | V -0.621 ± 0.1 | Y -0.554 ± 0.2
S11: C -0.206 ± 0.047 | D -0.758 ± 0.085 | E -0.031 ± 0.11 | F -0.217 ± 0.044 | H -0.703 ± 0.088 | I -0.737 ± 0.079 | L -0.432 ± 0.045 | M -0.394 ± 0.079 | N -0.762 ± 0.099 | P -0.99 ± 0.19 | Q -0.323 ± 0.092 | R -0.63 ± 0.058 | T -0.69 ± 0.11 | V -0.529 ± 0.058 | W -0.608 ± 0.089 | Y -0.29 ± 0.048
Q12: A -0.138 ± 0.1 | C -0.07 ± 0.06 | D 0.179 ± 0.12 | E 0.05 ± 0.069 | F -0.494 ± 0.1 | G -0.265 ± 0.05 | H -0.116 ± 0.23 | I -0.101 ± 0.15 | L -0.194 ± 0.055 | N -0.015 ± 0.099 | P -0.812 ± 0.15 | R -0.267 ± 0.042 | S -0.134 ± 0.06 | T -0.166 ± 0.079 | V -0.434 ± 0.092 | W -0.662 ± 0.1 | Y -0.343 ± 0.17
I13: C -0.29 ± 0.17 | E -0.163 ± 0.1 | F -0.21 ± 0.18 | G -0.222 ± 0.053 | H 0.027 ± 0.23 | K -0.195 ± 0.11 | L -0.127 ± 0.062 | M -0.228 ± 0.069 | N -0.164 ± 0.082 | P -0.484 ± 0.09 | Q -0.12 ± 0.095 | R -0.401 ± 0.062 | T -0.235 ± 0.095 | V -0.186 ± 0.049 | W -0.531 ± 0.14 | Y -0.456 ± 0.14
R15: A -0.38 ± 0.061 | C -0.357 ± 0.049 | D -0.752 ± 0.092 | E -0.354 ± 0.079 | F -0.464 ± 0.045 | H -0.428 ± 0.14 | I -0.25 ± 0.057 | K -0.022 ± 0.052 | L -0.512 ± 0.056 | M -0.177 ± 0.053 | N -0.738 ± 0.096 | P -0.686 ± 0.14 | Q -0.3 ± 0.069 | S -0.335 ± 0.039 | T -0.345 ± 0.078 | V -0.495 ± 0.044 | W -0.502 ± 0.063 | Y -0.375 ± 0.066
R16: A -0.011 ± 0.048 | C -0.206 ± 0.057 | D -0.223 ± 0.054 | F -0.368 ± 0.055 | G -0.254 ± 0.04 | I -0.216 ± 0.053 | L -0.154 ± 0.04 | M -0.212 ± 0.075 | P -0.234 ± 0.066 | Q -0.023 ± 0.067 | S -0.174 ± 0.041 | T -0.077 ± 0.049 | V -0.111 ± 0.038 | Y -0.416 ± 0.06
K17: A -0.765 ± 0.21 | C -0.857 ± 0.18 | D -0.459 ± 0.12 | E -1.1 ± 0.42 | F -0.353 ± 0.15 | G -0.783 ± 0.075 | H -0.426 ± 0.14 | I -0.178 ± 0.14 | L -0.215 ± 0.052 | M -0.401 ± 0.13 | N -0.262 ± 0.17 | P -0.987 ± 0.23 | Q -0.092 ± 0.078 | S -0.439 ± 0.075 | V -0.318 ± 0.1 | W -0.87 ± 0.13 | Y -0.421 ± 0.095
I18: A -0.484 ± 0.21 | C -0.278 ± 0.45 | E -0.63 ± 0.12 | F -0.351 ± 0.15 | H -0.627 ± 0.2 | K -0.892 ± 0.17 | M -0.169 ± 0.066 | Q -0.948 ± 0.3 | S -0.665 ± 0.13 | T -0.701 ± 0.22 | V -0.482 ± 0.086 | W -0.787 ± 0.082 | Y -0.285 ± 0.21
M19: C -0.175 ± 0.045 | D -0.463 ± 0.088 | E -0.019 ± 0.067 | F -0.257 ± 0.054 | G -0.452 ± 0.053 | H -0.368 ± 0.072 | I 0.014 ± 0.045 | K 0.007 ± 0.048 | L 0.116 ± 0.041 | N -0.396 ± 0.057 | P -0.785 ± 0.26 | Q -0.112 ± 0.11 | R -0.236 ± 0.05 | S -0.212 ± 0.039 | T -0.338 ± 0.098 | V -0.091 ± 0.046 | W -0.326 ± 0.068 | Y -0.459 ± 0.064
E20: A -0.265 ± 0.098 | C -0.478 ± 0.19 | D -0.255 ± 0.16 | F -0.601 ± 0.19 | G -0.343 ± 0.11 | H -0.143 ± 0.24 | I -0.227 ± 0.14 | K -0.439 ± 0.16 | L -0.284 ± 0.076 | M -0.239 ± 0.087 | N -0.478 ± 0.2 | P -0.524 ± 0.12 | Q -0.142 ± 0.33
